Test results as given in the supplement of paper PMC6757056.
± gives the standard deviation of the averaged measurements.

B1: library; a variant is named by its letters at N, in order (parent)
chain: GCUGUCACCGGUGUAUUACCCUAGUGGUCGACCGGUCUGAUGAGUCUNNNNNNAGACGAAACAGC

Key:
hypoxanthine [1] = variants of: B1; assay: FACS-Seq fitted mean relative fluorescence mCherry/BFP without ligand (log10 relative fluorescence); ligand: hypoxanthine (xanthine aptamer); higher = higher reporter protein expression; details: HEK293T, ligand present: no
Summary of the method: (§1)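 HEK293T libraries were made by lentiviral transduction with a ribozyme-switch mCherry reporter and an EF1α-BFP marker, enriched, and incubated with or without ligand for 48 h. Cells were sorted into 6 mCherry/BFP bins, and each bin's genomic DNA was PCR-amplified, barcoded and run on MiSeq. Fluorescence was derived by normal fitting of the bin counts. The fitted log10(mCherry/BFP) mean was scaled to five spiked-in control ribozymes.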

hypoxanthine [2] = variants of: B1; assay: normalized RNA/DNA level with ligand (relative to sTRSVctl = 100) (log10 (% of sTRSVctl)); ligand: hypoxanthine (xanthine aptamer); higher = less ribozyme self-cleavage, higher mRNA level; details: ligand concentration (+) RNA-Seq: 5 mM, HEK293T, reporter: mCherry (pCS4076), ligand present: yes
Experimental: (§2)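 Hammerhead (sTRSV) ribozyme switch libraries with a ligand aptamer grafted on stem I and a randomized N4-6 loop II, cloned into the 3' UTR of mCherry and transiently transfected into HEK293T cells; RNA-Seq 72 h post transfection with ligand added 1 h before transfection; RNA read count / plasmid DNA read count normalized to the non-cleaving sTRSVctl (x100), log10; sequences with >100 DNA reads. FACS-Seq: lentiviral library sorted into 6 bins after 48 h ligand, log-normal fit mean of mCherry/BFP scaled to controls. Printed sequences are partial switch sequences.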

hypoxanthine [3] = variants of: B1; assay: normalized RNA/DNA level without ligand (relative to sTRSVctl = 100) (log10 (% of sTRSVctl)); ligand: hypoxanthine (xanthine aptamer); higher = less ribozyme self-cleavage, higher mRNA level; details: HEK293T, reporter: mCherry (pCS4076), ligand present: no
Experimental: as §2

hypoxanthine [4] = variants of: B1; assay: FACS-Seq fitted mean relative fluorescence mCherry/BFP with ligand (log10 relative fluorescence); ligand: hypoxanthine (xanthine aptamer); ligand concentration (+) FACS-Seq: 5 mM; higher = higher reporter protein expression; details: HEK293T, ligand present: yes
Summary of the method: as §1

Variant	FACS-Seq fitted mean (log10) (hypoxanthine [1])	normalized RNA/DNA level with ligand (log10) (hypoxanthine [2])	normalized RNA/DNA level without ligand (log10) (hypoxanthine [3])	FACS-Seq fitted mean (log10) (hypoxanthine [4])
UAGAUG	-0.00441 ± 0.085	1.9 ± 0.081	1.615 ± 0.0023	0.344 ± 0.03
UACUAA	0.00308 ± 0.026	1.91 ± 0.023	1.8 ± 0.025	0.206 ± 0.073
UACUAG	0.177 ± 0.053	1.9142 ± 0.0014	1.65 ± 0.033	0.506 ± 0.038
UAGAAG	0.421 ± 0.0051	1.858 ± 0.0066	1.47 ± 0.022	0.577 ± 0.057
UAGAAA	0.355 ± 0.024	1.88 ± 0.052	1.702 ± 0.013	0.469 ± 0.053
UAGAAU	0.3304 ± 0.003	1.9 ± 0.023	1.72 ± 0.03	0.6203 ± 0.0037
UAGAAC	0.437 ± 0.028	1.93 ± 0.031	1.809 ± 0.014	0.578 ± 0.076
AACGGG	0.0434 ± 0.0087	1.83 ± 0.074	1.38 ± 0.036	0.516 ± 0.021
AACGGU	0.118 ± 0.036	1.88 ± 0.034	1.577 ± 0.01	0.3457 ± 0.0031
AACGGC	0.644 ± 0.088	1.95 ± 0.02	1.816 ± 0.012	0.696 ± 0.074
AACGGA	0.375 ± 0.033	1.917 ± 0.01	1.62 ± 0.035	0.525 ± 0.041
GACUUG	0.475 ± 0.072	1.84 ± 0.054	1.5 ± 0.034	0.228 ± 0.36
GACUCG	0.331 ± 0.066	1.86 ± 0.051	1.63 ± 0.083	0.567 ± 0.081
GAGCAA	0.362 ± 0.027	1.892 ± 0.013	1.581 ± 0.0039	0.596 ± 0.09
GAGCAG	-0.00628 ± 0.045	1.67 ± 0.027	1.19 ± 0.024	0.5054 ± 0.0013
GAGCAC	0.773 ± 0.029	1.89 ± 0.037	1.71 ± 0.05	0.682 ± 0.074
UACAUG	-0.317 ± 0.071	1.93 ± 0.029	1.69 ± 0.018	0.0659 ± 0.069
UACUCA	0.0121 ± 0.031	1.95 ± 0.029	1.907 ± 0.0097	0.0228 ± 0.0046

Variant	FACS-Seq fitted mean (log10) (hypoxanthine [1])	normalized RNA/DNA level with ligand (log10) (hypoxanthine [2])	normalized RNA/DNA level without ligand (log10) (hypoxanthine [3])	FACS-Seq fitted mean (log10) (hypoxanthine [4])
UACCUA	0.48 ± 0.072	1.93 ± 0.0042	1.921 ± 0.019	0.369 ± 0.023
UACCUG	-0.0249 ± 0.053	1.93 ± 0.024	1.635 ± 0.012	0.0984 ± 0.069
GAGACA	0.3113 ± 0.00099	1.905 ± 0.0057	1.68 ± 0.029	0.548 ± 0.014
GAGACG	0.287 ± 0.0096	1.749 ± 0.015	1.25 ± 0.055	0.807 ± 0.067
GAGACU	-0.451 ± 0.03	1.96 ± 0.047	1.83 ± 0.031	-0.205 ± 0.035
CACUUU	0.525 ± 0.016	1.89 ± 0.036	1.847 ± 0.0042	0.491 ± 0.011
CACUUC	-0.745 ± 0.014	1.884 ± 0.015	1.93 ± 0.066	-0.484 ± 0.033
AACCAG	0.356 ± 0.091	1.82 ± 0.027	1.41 ± 0.049	0.678 ± 0.017
AACCAC	0.0153 ± 0.085	1.91 ± 0.036	1.78 ± 0.037	0.246 ± 0.02
GACUAA	0.354 ± 0.073	1.89 ± 0.027	1.796 ± 0.0046	0.515 ± 0.01
GACUAU	0.185 ± 0.051	1.92 ± 0.077	1.829 ± 0.016	0.377 ± 0.004
UACUGU	0.399 ± 0.032	1.95 ± 0.066	1.67 ± 0.011	0.638 ± 0.036
CACCGA	0.374 ± 0.048	1.94 ± 0.0088	1.8 ± 0.038	0.516 ± 0.011
CACCUU	-0.395 ± 0.03	1.97 ± 0.03	1.87 ± 0.044	-0.0406 ± 0.045
GACUGG	0.157 ± 0.015	1.758 ± 0.0058	1.42 ± 0.045	0.6446 ± 0.0029
GACUGA	0.742 ± 0.053	1.94 ± 0.072	1.763 ± 0.011	0.639 ± 0.17
UACCGU	0.0177 ± 0.0044	1.95 ± 0.08	1.7185 ± 0.00046	0.448 ± 0.028
UACCGA	0.439 ± 0.021	1.91 ± 0.041	1.75 ± 0.024	0.551 ± 0.044
